The source of these data is article PMC6072280 (Nuclear medicine and biology, 2018).

The structures appear in SMILES notation.

For one data set, the target named is GRPR (Homo sapiens, UniProt P30550). Conditions: GRPR-expressing human PC-3 cells, 125I-[Tyr4]-BBN, 1 h 37°C.
Data set [1] relates to PC-3 tumor-bearing SCID mice.
A further data set in a line: in vivo. The following applies: male, ICR-SCID, mouse, iv, total radioactivity; for tissue uptake at 1 h / tissue uptake at 4 h / tissue uptake at 24 h: 20 μCi.

Chain of GRPR (P30550 whole entry): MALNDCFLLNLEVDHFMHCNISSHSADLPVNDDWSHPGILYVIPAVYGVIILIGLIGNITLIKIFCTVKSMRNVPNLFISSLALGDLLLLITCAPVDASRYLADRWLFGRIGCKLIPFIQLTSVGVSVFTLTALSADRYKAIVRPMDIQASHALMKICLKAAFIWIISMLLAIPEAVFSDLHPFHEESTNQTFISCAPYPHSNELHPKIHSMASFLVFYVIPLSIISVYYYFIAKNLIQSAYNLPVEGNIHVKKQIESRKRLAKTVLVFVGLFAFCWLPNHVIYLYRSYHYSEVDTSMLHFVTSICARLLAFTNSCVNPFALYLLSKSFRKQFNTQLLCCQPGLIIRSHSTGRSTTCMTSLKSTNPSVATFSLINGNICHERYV

Consider `CC(C)C[C@H](NC(=O)C[C@H](O)[C@H](CC(C)C)NC(=O)[C@H](Cc1c[nH]cn1)NC(=O)CNC(=O)[C@@H](NC(=O)[C@H](C)NC(=O)[C@H](Cc1c[nH]c2ccccc12)NC(=O)[C@H](CCC(N)=O)NC(=O)[C@@H](Cc1ccccc1)NC(=O)CCCCCNC(=O)[C@H](CCC(=O)NCCCC[C@@H]1NC(=O)[C@@H](Cc2ccc(O)cc2)NC(=O)[C@H](CC(=O)O)NC(=O)CNC(=O)[C@H](CCCNC(=N)N)NC1=O)NC(=O)CN1CCN(CC(=O)O)CCN(CC(=O)O)CCN(CC(=O)O)CC1)C(C)C)C(N)=O` [[RGD-Glu-[DO3A]-6-Ahx-RM2]] [[Cyclo-(Arg-Gly-Asp-DTyr-Lys)-(DO3A)-Glu-(6-Ahx-D-Phe-Gln-Trp-Ala-Val-Gly-His-Sta-Leu-NH2)]], for which the “IC50, PC-3” value against GRPR is listed as “single-digit, nanomolar range”.

As for `CC(C)C[C@H](NC(=O)C[C@H](O)[C@H](CC(C)C)NC(=O)[C@H](Cc1c[nH]cn1)NC(=O)CNC(=O)[C@@H](NC(=O)[C@H](C)NC(=O)[C@H](Cc1c[nH]c2ccccc12)NC(=O)[C@H](CCC(N)=O)NC(=O)[C@@H](Cc1ccccc1)NC(=O)CCCCCNC(=O)[C@H](CCC(=O)NCCCC[C@@H]1NC(=O)[C@@H](Cc2ccc(O)cc2)NC(=O)[C@H](CC(=O)O)NC(=O)CNC(=O)[C@H](CCCNC(=N)N)NC1=O)NC(=O)CN1CCN(CC(=O)O)CCN(CC(=O)O)CCN(CC(=O)O)CC1)C(C)C)C(N)=O` [[RGD-Glu-[[^90Y]Y-DO3A]-6-Ahx-RM2], metal not drawn], the “Biodistribution, Urine (urinary excretion)” value in data set [1] (4 h p.i., i.v., n = 5) is listed as 93.4 %ID. Further, in data set [1] (urine collected from tumor-bearing mice), the “In vivo stability, RP-HPLC of urinary radioactivity” value is “eluted with a similar retention time”. The tissue uptake (usually the percentage of the injected dose found per gram of tissue) at 1 h came to 0.45 ± 0.08 %ID/g in “in vivo” (bone); 0.03 ± 0.01 %ID/g in “in vivo” (brain); 0.31 ± 0.06 %ID/g in “in vivo” (heart); 2.36 ± 0.49 %ID/g in the data set “in vivo” (kidneys); 0.64 ± 0.12 %ID/g in “in vivo” (large intestine); 0.39 ± 0.08 %ID/g in the data set “in vivo” (liver). Besides, the tissue uptake at 1 h in “in vivo” (lung) turned out to be 0.8 ± 0.27 %ID/g; in the data set “in vivo” (muscle) it was 0.22 ± 0.06 %ID/g; in the data set “in vivo” (pancreas), 6.81 ± 0.92 %ID/g; in “in vivo” (small intestine) it was 1.41 ± 0.32 %ID/g; in “in vivo” (spleen) it was 1.36 ± 0.25 %ID/g; in “in vivo” (stomach) it was 1.19 ± 0.34 %ID/g. Further, the tissue uptake at 1 h in “in vivo” (tumor (PC-3 xenograft)) amounted to 8.7 ± 0.35 %ID/g. Also, the tissue uptake at 4 h in the data set “in vivo” (bone) worked out at 0.29 ± 0.05 %ID/g; in the data set “in vivo” (brain) it was 0.01 %ID/g; in the data set “in vivo” (heart) it was 0.16 ± 0.05 %ID/g; in “in vivo” (kidneys), 1.54 ± 0.31 %ID/g; in “in vivo” (large intestine), 0.66 ± 0.26 %ID/g; in the data set “in vivo” (liver), 0.35 ± 0.07 %ID/g. Further, the tissue uptake at 4 h in the data set “in vivo” (lung) was 0.44 ± 0.06 %ID/g; in the data set “in vivo” (muscle), 0.11 ± 0.02 %ID/g; in the data set “in vivo” (pancreas), 0.55 ± 0.12 %ID/g; in “in vivo” (small intestine), 0.39 ± 0.09 %ID/g; in the data set “in vivo” (spleen) it was 1.07 ± 0.18 %ID/g; in “in vivo” (stomach) it was 0.33 ± 0.07 %ID/g. The tissue uptake at 4 h in “in vivo” (tumor (PC-3 xenograft)) was determined as 4.48 ± 0.31 %ID/g. Further, the tissue uptake at 24 h in the data set “in vivo” (bone) worked out at 0.33 ± 0.12 %ID/g; in the data set “in vivo” (heart), 0.15 ± 0.04 %ID/g; in “in vivo” (kidneys) it was 0.89 ± 0.21 %ID/g; in the data set “in vivo” (large intestine) it was 0.31 ± 0.06 %ID/g; in the data set “in vivo” (liver) it was 0.29 ± 0.15 %ID/g; in “in vivo” (lung), 0.37 ± 0.1 %ID/g. Further, the tissue uptake at 24 h in the data set “in vivo” (muscle) stood at 0.1 ± 0.03 %ID/g; in “in vivo” (pancreas) it was 0.27 ± 0.05 %ID/g; in the data set “in vivo” (small intestine), 0.34 ± 0.07 %ID/g; in the data set “in vivo” (spleen) it was 1.21 ± 0.23 %ID/g; in “in vivo” (stomach) it was 0.22 ± 0.03 %ID/g; in “in vivo” (tumor (PC-3 xenograft)), 5.28 ± 0.12 %ID/g. The dose excreted at 1 h in the data set “in vivo” (urine, 20 uCi) is 84.6 ± 3.52%. Moreover, in “in vivo” (urine, 20 uCi), the dose excreted at 4 h turned out to be 93.4 ± 1.26%. Also, the dose excreted at 24 h in “in vivo” (urine, 20 uCi) stood at 92.7 ± 2.06%. In the data set “in vivo” (whole blood, 20 uCi), the tissue uptake dose at 1 h was 0.18 ± 0.04 %ID. For the same compound, the tissue uptake dose at 4 h in “in vivo” (whole blood, 20 uCi) was 0.01 %ID. Besides, the tissue uptake dose at 24 h in the data set “in vivo” (whole blood, 20 uCi) came out at 0.01 %ID.
